This is an account of results in article PMC4682845 (PLoS ONE, 2015).

The koff is the first-order rate constant of dissociation. Broadly, the kon is a measure of how fast the partners come together. A word on the Kd: it is the equilibrium constant for the complex coming apart.

Series [1] deals with […]-para-nitroanilide (TQ6-pNA) peptide substrate. Description: ITC + other: steady-state kinetics. To be noted: both partners purified.
The series “AUC” concerns the molecule itself. Description: AUC.

B1: SARS-CoV main protease (M^pro), wild type (enzyme)
chain: SGFRKMAFPSGKVEGCMVQVTCGTTTLNGLWLDDTVYCPRHVICTAEDMLNPNYEDLLIRKSNHSFLVQAGNVQLRVIGHSMQNCLLRLKVDTSNPKTPKYKFVRIQPGQTFSVLACYNGSPSGVYQCAMRPNHTIKGSFLNGSCGSVGFNIDYDCVSFCYMHHMELPTGVHAGTDLEGKFYGPFVDRQTAQAAGTDTTITLNVLAWLYAAVINGDRWFLNRFTTTLNDFNLVAMKYNYEPLTQDHVDILGPLSAQTGIAVLDMCAALKELLQNGMNGRTILGSTILEDEFTPFDVVRQCSGVTFQ
For B1, in series [1], the koff came to 0.084 s⁻¹ and the kon was 2460 M⁻¹ s⁻¹. In addition, the Kd in “AUC” amounted to 700 ± 20 nM.
